{"source": "patent US20050032189A1", "about": "(published 2005)", "target": "T1, Vitronectin receptor, αVβ3 integrin, localized on the HUVEC surface (human, UniProt P06756 31-1048; P05106 27-788)", "T1 construct": "whole, on cells; Present on bFGF-stimulated HUVEC in the cell adhesion assay; also called integrin αVβ3", "T1 sequence (P06756 31-1048, chain 1 of 2)": "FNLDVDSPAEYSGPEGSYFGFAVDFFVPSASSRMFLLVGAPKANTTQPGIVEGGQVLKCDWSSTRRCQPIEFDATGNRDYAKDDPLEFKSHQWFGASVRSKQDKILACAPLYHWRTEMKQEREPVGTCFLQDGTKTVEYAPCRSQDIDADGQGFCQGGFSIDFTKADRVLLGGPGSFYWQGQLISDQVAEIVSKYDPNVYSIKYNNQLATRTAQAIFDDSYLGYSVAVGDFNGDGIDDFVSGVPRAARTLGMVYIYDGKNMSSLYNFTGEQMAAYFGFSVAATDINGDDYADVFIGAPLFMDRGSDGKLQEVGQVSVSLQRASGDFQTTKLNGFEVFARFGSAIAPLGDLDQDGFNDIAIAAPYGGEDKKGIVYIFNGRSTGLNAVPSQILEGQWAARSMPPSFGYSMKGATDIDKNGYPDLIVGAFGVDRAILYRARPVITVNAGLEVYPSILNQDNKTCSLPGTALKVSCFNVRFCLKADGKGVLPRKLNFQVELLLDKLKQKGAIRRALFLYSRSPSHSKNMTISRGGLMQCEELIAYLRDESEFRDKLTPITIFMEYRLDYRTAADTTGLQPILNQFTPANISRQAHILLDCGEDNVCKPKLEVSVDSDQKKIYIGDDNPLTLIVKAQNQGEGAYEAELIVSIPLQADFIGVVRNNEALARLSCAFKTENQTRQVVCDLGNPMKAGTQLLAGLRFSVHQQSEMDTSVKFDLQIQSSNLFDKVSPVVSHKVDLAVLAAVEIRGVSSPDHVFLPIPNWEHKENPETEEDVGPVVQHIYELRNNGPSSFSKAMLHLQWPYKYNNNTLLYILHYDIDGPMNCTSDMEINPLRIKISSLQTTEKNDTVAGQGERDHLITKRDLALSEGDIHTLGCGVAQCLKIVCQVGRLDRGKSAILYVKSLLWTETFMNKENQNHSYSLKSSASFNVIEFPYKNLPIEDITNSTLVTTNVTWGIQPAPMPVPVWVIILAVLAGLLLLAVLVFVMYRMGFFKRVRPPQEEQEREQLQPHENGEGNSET", "T1 sequence (P05106 27-788, chain 2 of 2)": "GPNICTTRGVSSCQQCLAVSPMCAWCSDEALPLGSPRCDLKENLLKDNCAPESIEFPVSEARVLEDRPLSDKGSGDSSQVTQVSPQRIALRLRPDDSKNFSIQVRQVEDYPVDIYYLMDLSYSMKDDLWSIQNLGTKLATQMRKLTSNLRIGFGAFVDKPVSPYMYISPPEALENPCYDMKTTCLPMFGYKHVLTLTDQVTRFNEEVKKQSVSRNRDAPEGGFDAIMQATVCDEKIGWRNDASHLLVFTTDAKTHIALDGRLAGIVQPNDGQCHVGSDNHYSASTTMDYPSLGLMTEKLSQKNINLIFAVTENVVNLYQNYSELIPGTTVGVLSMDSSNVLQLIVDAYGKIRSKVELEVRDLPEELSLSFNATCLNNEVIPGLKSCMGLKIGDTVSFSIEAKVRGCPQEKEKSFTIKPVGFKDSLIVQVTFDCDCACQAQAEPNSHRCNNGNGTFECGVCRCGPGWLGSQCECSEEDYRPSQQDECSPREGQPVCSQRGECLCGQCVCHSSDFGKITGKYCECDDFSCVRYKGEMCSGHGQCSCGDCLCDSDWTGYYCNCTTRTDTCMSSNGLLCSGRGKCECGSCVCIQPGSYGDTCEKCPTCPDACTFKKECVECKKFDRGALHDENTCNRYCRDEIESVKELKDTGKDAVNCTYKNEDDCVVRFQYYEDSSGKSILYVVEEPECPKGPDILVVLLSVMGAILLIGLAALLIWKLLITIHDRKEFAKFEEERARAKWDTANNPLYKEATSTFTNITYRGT", "assay": "HUVEC adhesion assay on Saxatilin- and Vitronectin-coated plates"}
{"binder": "recombinant Saxatilin (ligand) EAGEECDCGAPANPCCDAATCKLRPGAQCAEGLCCDQCRFMKEGTICRMARGDDMDDYCNGISAGCPRNPFHA", "values": [{"measurement": "binding result", "result": "binds"}]}
